# Data from patent US8663642B2, “Anti-CD70 antibody-drug conjugates and their use for the treatment and prevention of cancer and immune disorders” (priority 2003, dated 2014).
# Assays:
# Caki-2 cells = assay: 3H-TdR proliferation assay, RCC lines; format: cell-based, human
# Caki-1 cells = assay: 3H-TdR proliferation assay, RCC lines; format: cell-based, human; settings: Caki-1 cells
# CD70^+ RCC lines [1] = assay: 3H-TdR proliferation assay, panel of RCC lines; format: cell-based, human
# [2] = tested on: PBMCs stimulated with irradiated allogeneic CESS cells; assay: Mixed lymphocyte reaction (3H-TdR); format: cell-based, human; settings: MLR, 5-day culture
# [3] = tested on: CD70^+ CD8^+/Vβ17^+ T cells; assay: In vitro deletion of M1 peptide-specific T cells (flow cytometry, viable counts); format: cell-based, human
# Experimental: PBMCs from a normal HLA-A0201donor were stimulated with the M1 peptide for 5 days. 1F6 ADCs or control non-binding IgG (cIgG) ADCs were added to cells to a final concentration of 1 μg/ml. Total viable cell counts were conducted at 24, 48, and 76 hours post drug addition. Total numbers of CD8^+/Vβ17^+ for each culture condition are calculated (upper panel).
# FIG. 19: Dose-response comparison of anti-CD70 ADCs on deletion of antigen-specific CD8^+/Vβ17^+ cells. PBMCs from a normal HLA-A0201donor were stimulated with the M1 peptide for 5 days. 1F6 ADCs or control non-binding IgG (cIgG) ADCs were given to cells to the specified final concentrations. The percentages of CD8^+/Vβ17^+ cells 4 days post ADC addition was determined by flow cytometry as in FIG. 17.
# To examine CD70 expression on activated antigen-specific T cells, PBMCs from a normal donor expressing HLA-A0201 were stimulated with the M1 peptide. PBMCs were seeded at 2×10^6 cells/ml with 5 μg/ml of M1 peptide in AIMV medium supplemented with 5% human AB serum. IL-2 (Proleukin, Chiron) and IL-15 (R&D Systems, MN) were added to final concentrations of 20 IU/ml and 5 ng/ml, respectively, once every two days beginning on day 2 after culture initiation. The expansion of CD8^+/Vβ17^+ T cells and induction of CD70 on the CD8^+/Vβ17^+ was followed by three-color flow cytometry. Vβ17^+ T cells were identified by the anti-TCRVβ17 mAb clone E17.5F3 (Beckman Coulter, Miami, Fla.).
# PBMCs from a normal donor expressing HLA-A0201 were stimulated with the M1 peptide as described in Example 11. On day 5, cells were harvested, washed, and re-seeded at 0.5-1×10^6 cells/ml (approximately 100,000 of CD8^+/Vβ17^+ T cells) in fresh AIMV medium supplemented with 5% human AB, 20 IU/ml of IL-2, and 5 ng/ml of IL-15. 1F6 or control non-binding IgG (cIgG) ADCs were added to some cultures to a final concentration of 1 μg/ml. Total viable cell counts were conducted 24, 48, and 76 hours after ADC addition. Two-color flow cytometry was conducted to determine the percentages of CD8^+/Vβ17^+ cells among the viable cells. The absolute number of CD8^+/Vβ17^+ T cells in each culture was then calculated. […] The effects of 1F6 ADCs on the CD8^+/Vβ17^− cells were also evaluated.
# The potency of three 1F6 ADCs was then compared. HLA-A0201 PBMCs were stimulated with the M1 peptide and re-seeded as described for FIG. 18 with the various ADCs at the indicated concentrations (FIG. 19). The percent of CD8^+/Vβ17^+ T cells after a 96-hour incubation was determined.
# CD70^− Hs 835.T cells = assay: 3H-TdR proliferation assay, CD70-negative RCC line; format: cell-based, human; settings: CD70^− Hs 835.T cells
# [4] = tested on: normal kidney epithelial lines RPTEC and HRCE; assay: Proliferation/cytotoxicity on normal kidney epithelial lines; format: cell-based, human
# WSU-NHL cells = assay: 3H-TdR proliferation assay, hematologic lines; format: cell-based, human; settings: 96 hours, 3H-TdR last 16 hours
# Experimental: (§1) FIG. 5: Effects of anti-CD70 ADCs on the proliferation of transformed hematologic cell lines. A subset of the CD70^+ cell lines shown in FIG. 4 and the CD70^− Jurkat cell line were tested for their sensitivity toward 1F6 ADCs. Graded doses of the 1F6-vcMMAE, 1F6-vcAFP, or the corresponding non-binding control IgG (IgG) ADCs were added to cells at the initiation of culture. Cells were exposed to the ADCs continuously for a total of 96 hours. Proliferation was determined by pulsing with ^3H-TdR during the last 16 hours of incubation. The upper panels show the response of the WSU-NHL and Jurkat lines. The lower panel summaries the responses by the tested cell lines to 1F6-vcMMAE and 1F6-vcAFP in form of IC50s.
# (§2) A subset of the CD70^+ hematologic lines listed in FIG. 4 was tested for sensitivity to the 1F6 ADCs. These lines were seeded at 5,000 cells per well in 96-well plates in quadruplicates in a total of 200 μl of culture medium containing graded doses of the ADCs as indicated in the FIG. 5 and the accompanying figure legend. Proliferation assays were carried out for 96 hours. Tritiated thymidine (^3H-TdR) incorporation during the last 16 hours of incubation was used to assess DNA synthesis. The responses of a CD70^+ B lymphoma cell line WSU-NHL and the CD70^− Jurkat cells are shown in the upper panels of FIG. 5. […] Proliferation inhibitory effects were apparent when the ADCs were used at concentrations higher than 0.005 μg/ml. […] On the other hand, proliferation of the CD70^− Jurkat acute T leukemia cell line was not affected by either 1F6-vcMMAE or 1F6-vcAFP at concentrations as high as 2 μg/ml. […] The responses of other CD70^+ cell lines tested are summarized in the lower panel of FIG. 5. […] Moreover, EBV-LCLs are phenotypically very similar to activated normal B cells.
# CD70^− Jurkat cells = assay: 3H-TdR proliferation assay, hematologic lines; format: cell-based, human; settings: at concentrations as high as 2 μg/ml
# Experimental: as §1, §2
# CD70^+ RCC lines [5] = settings: in 5 of 7 CD70^+ RCC lines tested
# Experimental: To examine the responses of CD70^+ RCC lines to 1F6 ADCs, cells were seeded between 1,000 to 3,000 cells per well in 100 μl of medium. An additional 100 μl of culture medium containing graded doses of ADCs were added to the wells after cells were allowed to attached overnight. In addition to DNA synthesis, cell viability, as a reflection of the cytotoxic activities of ADCs, was also assayed by the reduction of alamarBlue™ (Biosource International, Camarillo, Calif.). The alamarBlue™ dye was added at a one to four dilution during the last 4 to 24 hours of the incubation. Dye reduction was assessed by fluorescence spectrometry using the excitation and emission wavelengths of 535 nm and 590 nm, respectively. For analysis, the amount of ^3H-TdR incorporated or the extent of alamarBlue™ reduction by the treated cells was compared to that of the untreated control cells.
# Vβ17^− T cells = assay: Anti-CD3 plus anti-CD28 re-stimulation assay of bystander T cells (3H-TdR); format: cell-based, human; settings: Vβ17^− T cells from culture treated with 1 μg/ml, 96 hours, no exogenous IL-2
# Excerpt: PBMCs from a normal HLA-A0201donor were stimulated with the M1 peptide for 5 days.
# [6] = tested on: tetanus toxoid-specific T cells; format: cell-based, human
# Caki-1 tumors = assay: Caki-1 subcutaneous xenograft model of RCC; format: in vivo, nude mice; settings: Caki-1 xenograft, q4d×4
# Excerpt: Tumors were initiated in nude mice by implanting tissue tumor blocks (30 mm^3 in size) containing Caki-1 cells. Treatment began when average tumor size within a treatment group was around 100 mm^3. In the upper panel, treatment for the IgG and 1F6 groups began 17 days post implantation (filled arrow), while treatment for the 1F6-vcAFP and IgG-vcAFP groups began 25 days post implantation (open arrow). Indicated doses of either unconjugated mAbs or their ADCs were given for one course on a q4d×4 schedule.
# Using xenografts of the Caki-1 line in nude mice, the […] antitumor activity of 1F6-vcAFP was tested. To establish Caki-1 tumors, nude mice were injected subcutaneously with 5×10^6 Caki-1 cells in 0.2 ml PBS. […] Caki-1-containing tumors were excised from tumor bearing mice and tumor tissue blocks of approximately 30 mm^3 were prepared. Naive nude mice to be used for evaluating in vivo antitumor activity of anti-CD70 ADC were each implanted subcutaneously with one tumor block of 30 mm^3. […] Treatment was initiated when the average tumor size within a group was approximately 100 mm^3 (FIG. 12, arrows).
# [7] = tested on: Hodgkin's disease cell lines; assay: Cytotoxic activity against Hodgkin's disease cell lines (panel); format: cell-based, human
# Experimental: Cell surface CD70 expression was also evaluated in panels of Hodgkin's disease (Table 4) and glioblastoma cell lines (Table 5). The copy number of CD70 molecules expressed by each cell line was determined by quantitative flow cytometry using the QIFIKit® (Dako, Carpinteria, Calif.). The response of these cells to anti-CD70 ADC-mediated cytotoxicity was determined.
# [8] = tested on: CD70-expressing multiple myeloma cells; assay: Cytotoxic activity against multiple myeloma cell lines (panel); format: cell-based, human
# Experimental: Cell surface CD70 expression was evaluated in a panel of multiple myeloma cell lines (Table 3). Copy number of CD70 molecules expressed by each cell line was determined by quantitative flow cytometry using the QIFIKit® (Dako, Carpinteria, Calif.). Response of these cells to anti-CD70 ADC-mediated cytotoxicity was determined.
molecule,measurement,setting,value
"1F6-vcMMAE: anti-CD70 mAb 1F6 linked to monomethyl auristatin E by the valine-citrulline (vc) dipeptide linker (conjugate, non-natural residues, anti-CD70 mAb 1F6 linked to monomethyl auristatin E by the valine-citrulline (vc) dipeptide linker) VH: QIQLVQSGPEVKKPGETVKISCKASGYTFTNYGMNWVKQAPGKGLKWMGWINTYTGEPTYADAFKGRFAFSLETSASTAYLQINNLKNEDTATYFCARDYGDYGMDYWGQGTSVTVSS VL: DIVLTQSPASLAVSLGQRATISCRASKSVSTSGYSFMHWYQQKPGQPPKLLIYLASNLESGVPARFSGSGSGTDFTLNIHPVEEEDAATYYCQHSREVPWTFGGGTKLEIKR","IC50, proliferation",Caki-2 cells,lower than 20 ng/ml
same,"IC50, proliferation",Caki-1 cells,lower than 20 ng/ml
same,activity on proliferation,"CD70^+ RCC lines [1]; other CD70^+ RCC lines (not Caki-1, Caki-2)",not active
same,effect on T cell proliferation,[2],substantially inhibited T cell proliferation
same,number of CD8^+/Vβ17^+ T cells,"[3]; 1 μg/ml, 76 hours after ADC addition","approximately 400,000"
same,inhibition of CD8^+/Vβ17^+ T cell expansion,[3]; 96-hour incubation,dose-dependent inhibition
same,relative inhibitory activity,[3]; 96-hour incubation,weaker than both 1F6-vcAFP and 1F6-vcMMAF
same,activity on proliferation,CD70^− Hs 835.T cells,not active
same,activity on proliferation,[4],not active
same,effect on the proliferation of WSU-NHL cells,WSU-NHL cells,dose-dependent inhibitory effects
same,effect on proliferation of Jurkat cells,CD70^− Jurkat cells,not affected
"1F6-vcMMAF: anti-CD70 mAb 1F6 linked to monomethyl auristatin phenylalanine by the valine-citrulline (vc) dipeptide linker (conjugate, non-natural residues, anti-CD70 mAb 1F6 linked to monomethyl auristatin phenylalanine by the valine-citrulline (vc) dipeptide linker) VH: QIQLVQSGPEVKKPGETVKISCKASGYTFTNYGMNWVKQAPGKGLKWMGWINTYTGEPTYADAFKGRFAFSLETSASTAYLQINNLKNEDTATYFCARDYGDYGMDYWGQGTSVTVSS VL: DIVLTQSPASLAVSLGQRATISCRASKSVSTSGYSFMHWYQQKPGQPPKLLIYLASNLESGVPARFSGSGSGTDFTLNIHPVEEEDAATYYCQHSREVPWTFGGGTKLEIKR",IC50 values for proliferation inhibition,CD70^+ RCC lines [1]; CD70^+ RCC lines tested,lower than 30 ng/ml
same,CD8^+/Vβ17^+ T cells in the culture,"[3]; 1 μg/ml added on day 5, 4 days, untreated 47%",14%
same,inhibition of CD8^+/Vβ17^+ T cell expansion,[3]; 96-hour incubation,dose-dependent inhibition
same,IC50 values to induce cytotoxicity,CD70^+ RCC lines [5],lower than 30 ng/ml
same,response to anti-CD3 plus anti-CD28 re-stimulation,Vβ17^− T cells,comparable to that of the untreated cells
"1F6: anti-human CD70 monoclonal antibody obtained from the Central Laboratory of the Netherlands Red Cross Blood Transfusion Service (antibody, V domains shown, Mature 1F6 Heavy Chain Variable region from Figure 1; Mature 1F6 Light Chain Variable Region from Figure 1, anti-human CD70 monoclonal antibody obtained from the Central Laboratory of the Netherlands Red Cross Blood Transfusion Service) VH: QIQLVQSGPEVKKPGETVKISCKASGYTFTNYGMNWVKQAPGKGLKWMGWINTYTGEPTYADAFKGRFAFSLETSASTAYLQINNLKNEDTATYFCARDYGDYGMDYWGQGTSVTVSS VL: DIVLTQSPASLAVSLGQRATISCRASKSVSTSGYSFMHWYQQKPGQPPKLLIYLASNLESGVPARFSGSGSGTDFTLNIHPVEEEDAATYYCQHSREVPWTFGGGTKLEIKR",effect on tetanus toxoid-induced T cell proliferation,[6],did not show a significant effect
same,therapeutic activity / tumor growth,Caki-1 tumors,Very little therapeutic activity
"c1F6-vcMMAF4: chimeric 1F6 (c1F6)-vcMMAF4 anti-CD70 ADC (conjugate, non-natural residues, chimeric 1F6 (c1F6)-vcMMAF4 anti-CD70 ADC) VH: QIQLVQSGPEVKKPGETVKISCKASGYTFTNYGMNWVKQAPGKGLKWMGWINTYTGEPTYADAFKGRFAFSLETSASTAYLQINNLKNEDTATYFCARDYGDYGMDYWGQGTSVTVSS VL: DIVLTQSPASLAVSLGQRATISCRASKSVSTSGYSFMHWYQQKPGQPPKLLIYLASNLESGVPARFSGSGSGTDFTLNIHPVEEEDAATYYCQHSREVPWTFGGGTKLEIKR","IC50 values, range over the panel",[7],0.41 to 42 ng/mL
same,"IC50 values, range over the panel",[8],1.2 to 160 ng/mL
